Data from patent US20250290928A1, “METHOD, KIT AND DEVICE FOR DETECTING EXTRACELLULAR VESICLES” (priority 2022, published 2025).
No end group written: not given here. *: point of attachment. 5FAM = O=C1OC2(c3ccc(O)cc3Oc3cc(O)ccc32)c2ccc(C(=O)*)cc21; TQ2 = quencher; TQ3 = quencher

Target: T1, MMP14 in the MDA-MB-231-derived extracellular vesicles (Homo sapiens, UniProt P50281)
T1 construct: in terms of intact MMP14 with a molecular weight of 70 kDa
Assay: Evaluation of MMP14 activity of MDA-MB-231-derived extracellular vesicles with 96-well plate
Type: biochemical
Details: for increase in fluorescence intensity (temporal change): Example 4, EV 5 μg/mL, Assay buffer (Component D); for reaction rate per 1 μg/mL of extracellular vesicles: within 1 hour; for Km / Vmax: Example 9, EV 4 μg/mL, buffer (3), Lineweaver-Burk plots
Procedure: A relative fluorescence unit difference ΔRFU was calculated by subtracting the measured value of the sample for BG measurement from the measured value of each of the samples.
The concentration of the solution is 41.7 μg/mL. The concentration of the solution was set to x1, and 2-fold serial dilution was performed to prepare standard samples with six concentrations.
50 μL of the MMP14 detection solution was added to 50 μL of each of the samples, a reaction was performed at 37° C., and MMP14 activity was evaluated.
The concentration of the solution is 10 μg/mL.
50 μL of each of the MMP14 detection solutions was added to 50 μL of each of the samples, a reaction was performed at 37° C., and MMP14 activity was evaluated. […]
The concentration of the solution is 20 μg/mL. The concentration of the solution was set to x1, and 3-fold serial dilution was performed to prepare standard samples with three concentrations.
The concentration of the solution is 8 μg/mL.
50 μL of each of the MMP14 detection solutions was added to 50 μL of the sample, a reaction was performed at 37° C., and MMP14 activity was evaluated. […]
50 μL of the MMP14 detection solution was added to 50 μL of each of the samples, a reaction was performed at 30° C., and MMP14 activity was evaluated.
The MMP14 activity of the extracellular vesicles was evaluated with a 96-well plate (137101). A fluorescence intensity was measured with a fluorescence plate reader (Synergy) at 30° C. every 5 minutes for 2 hours. For measurement wavelengths, an excitation wavelength of 545±20 nm and a fluorescence wavelength of 588±20 nm were used. A relative fluorescence unit difference (ΔRFU) was calculated by subtracting the measured value of the sample for BG measurement from the measured value of each of the samples.
50 μL of each of the MMP14 detection solutions was added to 50 μL of each of the samples, a reaction was performed at 30° C., and MMP14 activity was evaluated.

[1] = Example 5, Assay buffer (Component D) of SensoLyte 520 MMP-14 Assay Kit, reporter 5 μM, 37° C.
[2] = Example 8, buffer (2), reporter 5 μM, 37° C.
[3] = buffer (4), reporter 5 μM, 37° C.

Substance | increase in fluorescence intensity (temporal change) (reporter 5 μM, 37° C.) | reaction rate per 1 μg/mL of extracellular vesicles [1] | reaction rate per 1 μg/mL of extracellular vesicles [2] | Km (37° C.) [µM] | Vmax (37° C.) | cleaved more easily than Custom #2 (Example 9 reaction conditions) | fluorescence intensity at the same extracellular vesicle concentration (Example 10, buffer (3), reporter 5 μM, 37° C.) | extracellular vesicle concentration at which MMP14 activity was able to be detected with a 96-well plate [3] [µg/mL] | Fluorescence change after 2 hours of reaction at 30° C. (Example 41, EV 5 μg/mL, reporter 5 μM, buffer (4), excitation 545±20 nm, fluorescence 588±20 nm) | Fluorescence change after 2 hours of reaction at 30° C. (MP, 1.25 μM #2T with 1.25 μM #1, EV 3.3 μg/mL) | Fluorescence change after 2 hours of reaction at 30° C. (MP, 1.25 μM #2T with 1.25 μM #2, EV 3.3 μg/mL) | Fluorescence change after 2 hours of reaction at 30° C. (MP, 2.5 μM #2T with 2.5 μM #1, EV 3.3 μg/mL) | Fluorescence change after 2 hours of reaction at 30° C. (MP, 2.5 μM #2T with 2.5 μM #2, EV 3.3 μg/mL)
[5-FAM]GRIGFLRTAK(TQ2)[OH] (5FAM-GRIGFLRTAK(TQ2)-OH) [Custom #1] | more significant than that from SensoLyte 520 MMP-14 | 101.5 ΔRFU/min | 198 ΔRFU/min | 0.443 | 1,278.77 ΔRFU/min | about 2.5 times | higher than the fluorescence intensity from Custom #2 | ≥ 1 | – | – | – | – | –
TAMRA-GGPLGLAGGK(TQ3) ({TAMRA}-GGPLGLAGGK(TQ3)) [Custom #2T] | – | – | – | – | – | – | – | – | 6,455 ΔRFU | 1,015 ΔRFU | 1,734 ΔRFU | 1,118 ΔRFU | 2,196 ΔRFU
[5-FAM]GGPLGLAGGK(TQ2)[OH] (5FAM-GGPLGLAGGK(TQ2)-OH) [Custom #2] | more significant than that from SensoLyte 520 MMP-14 | 83.3 ΔRFU/min | 99.0 ΔRFU/min | 0.511 | 582.411 ΔRFU/min | – | – | ≥ 1 | – | – | – | – | –
